Where a chain is given by its changes, count along the chain named. Numbers in names are those of the source. One block for each binder: values may come before it.
Target: T1, PKR fused to the GAL4 DNA-binding domain (mammalian two-hybrid bait) (UniProt P19525 1-551)
T1 construct: also called GAL4-DBD PKR; source: mammalian two-hybrid fusion, transfected cells (COS-1 by the methods, HeLa by the legends)
Assay: two-hybrid; mammalian two-hybrid, PKR as GAL4-DBD fusion (bait), PACT proteins as VP16-AD fusions (preys), pG5Luc firefly luciferase reporter normalised to pRL-Null; cells untreated, no stress
Conditions: partners not purified

T1 sequence (P19525 whole entry, the tested form may be a part): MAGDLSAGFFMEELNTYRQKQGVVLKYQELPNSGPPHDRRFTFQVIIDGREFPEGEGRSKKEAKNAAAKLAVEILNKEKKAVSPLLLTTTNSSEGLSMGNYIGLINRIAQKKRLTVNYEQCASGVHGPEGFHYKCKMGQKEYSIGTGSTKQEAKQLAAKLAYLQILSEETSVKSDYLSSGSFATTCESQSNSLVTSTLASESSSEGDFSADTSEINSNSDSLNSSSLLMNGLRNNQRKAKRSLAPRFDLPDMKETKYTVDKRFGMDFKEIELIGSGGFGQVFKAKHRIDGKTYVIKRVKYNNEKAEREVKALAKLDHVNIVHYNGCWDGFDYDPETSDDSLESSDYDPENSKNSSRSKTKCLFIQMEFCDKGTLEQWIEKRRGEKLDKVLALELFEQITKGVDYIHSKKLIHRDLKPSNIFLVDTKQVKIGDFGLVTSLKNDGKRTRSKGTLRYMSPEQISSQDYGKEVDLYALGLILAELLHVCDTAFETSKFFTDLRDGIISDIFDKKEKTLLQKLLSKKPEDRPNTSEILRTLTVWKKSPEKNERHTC

fold interaction against wt PACT-PKR (two-hybrid luciferase): > 2 fold
B1: DD (S246D, S287D) phosphomimic mutant PACT fused to the VP16 activation domain (mammalian two-hybrid prey) (natural protein, UniProt O75569 1-313, looked up)
chain: MSQSRHRAEAPPLEREDSGTFSLGKMITAKPGKTPIQVLHEYGMKTKNIPVYECERSDVQIHVPTFTFRVTVGDITCTGEGTSKKLAKHRAAEAAINILKANASICFAVPDPLMPDPSKQPKNQLNPIGSLQELAIHHGWRLPEYTLSQEGGPAHKREYTTICRLESFMETGKGASKKQAKRNAAEKFLAKFSNISPENHISLTNVVGHSLGCTWHSLRNSPGEKINLLKRSLLSIPNTDYIQLLDEIAKEQGFNITYLDIDELSANGQYQCLAELSTSPITVCHGDGISCGNAQSDAAHNALQYLKIIAERK
notes: PACT ORF with serines 246 and 287 replaced by aspartic acids, in pVP16AASV19N; also called DD PACT; DD mutant; source: mammalian two-hybrid fusion, transfected cells (COS-1 by the methods, HeLa by the legends)

fold interaction against wt PACT-PKR (two-hybrid luciferase): ~3 fold
B2: P222L PACT fused to the VP16 activation domain (mammalian two-hybrid prey) (natural protein, UniProt O75569 1-313, looked up)
chain: B1 chain with P222L, D246S, D287S
notes: PACT ORF with the DYT-PRKRA patient mutation P222L, in pVP16AASV19N; Plasmid described in Vaughn et al., 2015; Burnett et al., 2020; also called P222L mutant; source: mammalian two-hybrid fusion, transfected cells (COS-1 by the methods, HeLa by the legends)
